From US20240401239A1 (US Dept. of Health and Human Services, published 2024) come the findings set out here.

The target of test [1] is spike protein of authentic SARS-COV-2 virus (USA_WA1/2020) (SARS-COV-2, UniProt P0DTC2 14-1273). Nature of the test: cell-based or functional assay.
Test [2] deals with SARS-COV-2 S protein (Wuhan-Hu-1, WT) on MLV pseudotyped particles (SARS-COV-2, UniProt P0DTC2 14-1254). Nature of the test: cell-based or functional assay.
Test [3] has as its target T1, mitochondrial elongation factor 1 (MIEF1) (human, UniProt Q9NQG6 1-463).
T1 construct: whole, on cells
Nature of the test: flow cytometry validation after the membrane proteome array screen. On the technique in general: Flow cytometry measures light scatter and fluorescence of single cells or particles in a stream.

Test [4] has as its target SARS-COV-2 spike protein receptor binding domain fused to an Fc tag (RBD-Fc, residues 319-541) (Sino … (SARS-COV-2, UniProt P0DTC2 319-541)).

T1 sequence (Q9NQG6 whole entry): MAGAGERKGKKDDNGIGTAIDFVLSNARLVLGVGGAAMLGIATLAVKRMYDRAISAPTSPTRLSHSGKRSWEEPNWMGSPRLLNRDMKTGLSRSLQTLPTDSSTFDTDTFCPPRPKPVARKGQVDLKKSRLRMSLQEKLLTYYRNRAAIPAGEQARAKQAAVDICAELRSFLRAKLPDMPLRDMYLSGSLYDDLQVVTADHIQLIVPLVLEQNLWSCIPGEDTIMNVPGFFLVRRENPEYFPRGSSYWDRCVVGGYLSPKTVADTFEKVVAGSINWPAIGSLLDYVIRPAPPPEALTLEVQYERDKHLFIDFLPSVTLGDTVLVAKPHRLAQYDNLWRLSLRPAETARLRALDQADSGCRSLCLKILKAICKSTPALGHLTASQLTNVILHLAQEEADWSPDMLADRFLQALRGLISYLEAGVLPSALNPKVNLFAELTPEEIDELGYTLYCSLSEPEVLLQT

B1: RBD-1-2G-Tri (bispecific antibody)
chain: EVQLVESGGGLVQPGGSLRLSCAASGFSSIVYMGWFRQAPGKGRELVAAIDASGSTTNYPDSVEGRFTISRDNAKRMVYLQMNSLRAEDTAVYYCAIAYFTSPEYVVSQGWGQGTQVTVSSGGGGSGGGGSGGGGSEVQLVESGGGLVQPGGSLRLSCAASGFSSIVYMGWFRQAPGKGRELVAAIDASGSTTNYPDSVEGRFTISRDNAKRMVYLQMNSLRAEDTAVYYCAIAYFTSPEYVVSQGWGQGTQVTVSSGGGGSGGGGSGGGGSEVQLVESGGGLVQPGGSLRLSCAASGFSSIVYMGWFRQAPGKGRELVAAIDASGSTTNYPDSVEGRFTISRDNAKRMVYLQMNSLRAEDTAVYYCAIAYFTSPEYVVSQGWGQGTQVTVSSHHHHHH
B1: the “IC50, SARS-COV-2 live virus (CPE) assay on Vero E6 cells” value (from here on “IC50, SARS-COV-2 live virus (CPE) assay”) in test [1] was found to be 0.182 µM. Besides, in test [2], the “IC50, pseudotyped particle entry assay, wildtype particles” value (from here on “IC50, pseudotyped particle entry assay”) was 0.0045 µM.

B2: RBD-1-2G-Fc (Fc fusion)
chain: EVQLVESGGGLVQPGGSLRLSCAASGFSSIVYMGWFRQAPGKGRELVAAIDASGSTTNYPDSVEGRFTISRDNAKRMVYLQMNSLRAEDTAVYYCAIAYFTSPEYVVSQGWGQGTQVTVSS
notes: also called bivalent format of RBD-1-2G
Consider B2, for which the “IC50, SARS-COV-2 live virus (CPE) assay” value in test [1] is 0.255 µM. Further, in test [2], the “IC50, pseudotyped particle entry assay” value stood at 0.0102 µM.

B3: single-domain antibody RBD-1-2G (VHH)
VHH: EVQLVESGGGLVQPGGSLRLSCAASGFSSIVYMGWFRQAPGKGRELVAAIDASGSTTNYPDSVEGRFTISRDNAKRMVYLQMNSLRAEDTAVYYCAIAYFTSPEYVVSQGWGQGTQVTVSS
notes: also called RBD-1-2G Nb; RBD-1-2G nanobody
Consider B3, for which the binding result in test [3] is given as “no binding”. Besides, in test [1], the “IC50, SARS-COV-2 live virus (CPE) assay” value was 1.21 µM; the “IC50, SARS-COV-2 live virus assay, lyophilized and reconstituted RBD-1-2G” value was 5.9 µM; the “IC50, SARS-COV-2 live virus assay, untreated RBD-1-2G” value came to 14.8 µM. Further, in test [2], the “IC50, SARS-COV-2 pseudotyped particle entry assay (HEK293-ACE2 cells)” value came out at 0.49 µM and the “IC50, pseudotyped particle entry assay” value stood at 0.512 µM. Moreover, the 50% inhibitory concentration (IC50) in test [4] came out at 0.0283 µM.

Usually IC50 stands for the point on the concentration scale where inhibition reaches its midpoint. A low value points to greater potency in that assay.
